Common to all, as to assay: cell-based or functional assay
Assay [1] has as its target T1, VPAC2 receptor (human, UniProt P41587 24-438).
T1 sequence (looked up): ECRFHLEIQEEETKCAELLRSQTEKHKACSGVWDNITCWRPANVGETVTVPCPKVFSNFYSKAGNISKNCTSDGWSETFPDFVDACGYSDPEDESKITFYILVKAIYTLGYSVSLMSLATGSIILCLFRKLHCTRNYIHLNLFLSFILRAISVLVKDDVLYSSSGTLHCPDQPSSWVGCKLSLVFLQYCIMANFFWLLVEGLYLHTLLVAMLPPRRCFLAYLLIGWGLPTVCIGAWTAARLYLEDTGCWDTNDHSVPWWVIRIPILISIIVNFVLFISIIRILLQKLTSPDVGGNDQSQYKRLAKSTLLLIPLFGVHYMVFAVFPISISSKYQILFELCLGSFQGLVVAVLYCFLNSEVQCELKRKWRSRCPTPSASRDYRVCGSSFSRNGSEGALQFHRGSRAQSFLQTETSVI

Assay [2] deals with T1, VPAC2 receptor. The source holds these as a separate data set.
Assay [3] deals with T1, VPAC2 receptor. This is another data set of the same source.
Assay [4] has as its target T2, VPAC1 receptor (UniProt P32241 31-457, limits assumed).
T2 sequence (looked up): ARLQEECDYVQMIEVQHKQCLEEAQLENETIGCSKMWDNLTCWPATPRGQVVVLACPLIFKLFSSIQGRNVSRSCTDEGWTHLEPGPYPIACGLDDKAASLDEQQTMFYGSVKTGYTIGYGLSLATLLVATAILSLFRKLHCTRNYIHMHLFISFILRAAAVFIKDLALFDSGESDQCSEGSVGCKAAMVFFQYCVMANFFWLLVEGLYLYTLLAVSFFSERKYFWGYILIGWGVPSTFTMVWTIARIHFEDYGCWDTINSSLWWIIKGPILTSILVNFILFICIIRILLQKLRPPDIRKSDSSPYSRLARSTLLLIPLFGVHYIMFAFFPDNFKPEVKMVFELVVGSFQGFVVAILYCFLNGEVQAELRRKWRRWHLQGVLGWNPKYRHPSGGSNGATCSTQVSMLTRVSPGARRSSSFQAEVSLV

Read-outs that look alike come from different tables or passages of the source. Ends that are not written are not given here.

Molecule “PACAP-27 (from UniProt P18509 132-158) (peptide)” displayed an EC50 (nM), cAMP SPA in assay [1] of 0.09 nM.

Ac-HTDAVFTDQYTRLRKQVAAKKYLQSIKQKRY (ends and bridges not checked) [P8]: in assay [2], the “maximal level of receptor activation relative to PACAP-27, cAMP SPA” value amounted to 100%. The results for the “EC50 (nM), cAMP SPA” value in assay [3] and in assay [4] were 0.19 nM and 130 nM, respectively.

Take HSDAVFTDQYTRLRKQVAAKKYLQSIKQKRYC (ends and bridges not checked) [P12]: the “EC50 (nM), cAMP SPA” value in assay [4] is above 1000 nM.

Take HSDAVFTDQYTRLRKQVAAKKYLQSIKQKRYC (43 kD PEG on the C-terminal Cys via maleimide (thioether) linkage) [P12 plus 43 kD PEG]: the “EC50 (nM), cAMP SPA” value in assay [4] is above 1000 nM.

For HSDAVFTDQYTRLRKQVAAKKYLQSIKQKRYC (22 kD PEG on the C-terminal Cys via maleimide (thioether) linkage) [P12 plus 22 kD PEG], the “EC50 (nM), cAMP SPA” value in assay [4] is above 1000 nM.

As to HTEAVFTDQYTRLRKQVAAKKYLQSIKQKRY [P7], the “maximal level of receptor activation relative to PACAP-27, cAMP SPA” value in assay [2] is 100%. Moreover, the “EC50 (nM), cAMP SPA” value in assay [3] was 7.81 nM; in assay [4], above 1000 nM.

Consider HSDAVFTDQYTRLRKQVAAKKYLQSIKQKRY [P5], for which the “EC50 (nM), cAMP SPA” value in assay [4] came to 232 nM.

The values are drawn from patent US20040058870A1 (Bayer, published 2004).
